Results as given in US20240270846A1 (published 2024).

Each binder was assayed against T1, CD3 epsilon homodimer protein (UniProt P07766 23-126) (assay: SPR Biacore T200, CD3 epsilon homodimer on chip, antibody as analyte;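 further: homodimer amine-coupled to a CM4 sensor chip, run at 25 °C in HBS-EP+ buffer, with kinetic parameters derived in Biacore T200 Evaluation Software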).
T1 construct: also called CD3 (CD3 epsilon)
T1 sequence (P07766 23-126): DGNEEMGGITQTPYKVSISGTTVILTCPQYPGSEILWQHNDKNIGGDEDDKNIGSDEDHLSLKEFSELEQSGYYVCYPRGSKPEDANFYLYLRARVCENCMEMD
Protocol: An appropriate amount of CD3 epsilon homodimer protein was immobilized onto Sensor chip CM4 (GE Healthcare Japan Corp.) by the amine coupling method. Then, the antibody having an appropriate concentration was injected thereto as an analyte and allowed to interact with the CD3 epsilon homodimer protein on the sensor chip. Then, the sensor chip was regenerated by the injection of 10 mmol/L glycine-HCl (pH 1.5). The assay was conducted at 25 degrees C., and HBS-EP+(GE Healthcare Japan Corp.) was used as a running buffer. […] Each parameter was calculated using Biacore T200 Evaluation Software (GE Healthcare Japan Corp.).
Specifically, when the amount of the antibody comprising CE115HA000 bound was defined as X and the amount of the H chain one-amino acid altered form bound was defined as Y, a value of Z (ratio of amounts bound)=Y/X was used.

Row | KD ratio (KD of CE115HA000 / KD of altered form) | Binder
1 | 1.06 | CE115HA000 H chain altered form Y58A (antibody, human IgG1, kappa, L234A L235A, N297A, name in Kabat numbering, one-arm antibody) heavy: QVQLVESGGGVVQPGRSLRLSCAASGFTFSNAWMHWVRQAPGKGLEWVAQIKAKSNNYATAYAESVKGRFTISRDDSKNSLYLQMNSLKTEDTAVYYCRYVHYGAYYGVDAWGQGTTVTVSSASTKGPSVFPLAPSSKSTSGGTAALGCLVKDYFPEPVTVSWNSGALTSGVHTFPAVLQSSGLYSLSSVVTVPSSSLGTQTYICNVNHKPSNTKVDKKVEPKSCDKTHTCPPCPAPEAAGGPSVFLFPPKPKDTLMISRTPEVTCVVVDVSHEDPEVKFNWYVDGVEVHNAKTKPREEQYASTYRVVSVLTVLHQDWLNGKEYKCKVSNKALPAPIEKTISKAKGQPREPQVYTLPPSRCELTKNQVSLSCAVKGFYPSDIAVEWESNGQPENNYKTTPPVLDSDGSFFLVSKLTVDKSRWQQGNVFSCSVMHEALHNHYTQKSLSLSPDYKDDDDK EPKSSDKTHTCPPCPAPELLGGPSVFLFPPKPKDTLMISRTPEVTCVVVDVSHEDPEVKFNWYVDGVEVHNAKTKPREEQYNSTYRVVSVLTVLHQDWLNGKEYKCKVSNKALPAPIEKTISKAKGQPREPQVCTLPPSRDELTKNQVSLWCLVKGFYPSDIAVEWESNGQPENNYKTTPPVLDSDGSFFLYSKLTVDKSRWQQGNVFSCSVMHEALHNRYTQKSLSLSP light: DIVMTQSPLSLPVTPGEPASISCRSSQSLVHSNRNTYLHWYQQKPGQAPRLLIYKVSNRFSGVPDRFSGSGSGTDFTLKISRVEAEDVGVYYCGQGTQVPYTFGQGTKLEIKRTVAAPSVFIFPPSDEQLKSGTASVVCLLNNFYPREAKVQWKVDNALQSGNSQESVTEQDSKDSTYSLSSTLTLSKADYEKHKVYACEVTHQGLSSPVTKSFNRGEC
2 | 4.81 | CE115HA000 H chain altered form Y58D (antibody, human IgG1, kappa, L234A L235A, N297A, name in Kabat numbering, one-arm antibody) heavy: QVQLVESGGGVVQPGRSLRLSCAASGFTFSNAWMHWVRQAPGKGLEWVAQIKAKSNNYATDYAESVKGRFTISRDDSKNSLYLQMNSLKTEDTAVYYCRYVHYGAYYGVDAWGQGTTVTVSSASTKGPSVFPLAPSSKSTSGGTAALGCLVKDYFPEPVTVSWNSGALTSGVHTFPAVLQSSGLYSLSSVVTVPSSSLGTQTYICNVNHKPSNTKVDKKVEPKSCDKTHTCPPCPAPEAAGGPSVFLFPPKPKDTLMISRTPEVTCVVVDVSHEDPEVKFNWYVDGVEVHNAKTKPREEQYASTYRVVSVLTVLHQDWLNGKEYKCKVSNKALPAPIEKTISKAKGQPREPQVYTLPPSRCELTKNQVSLSCAVKGFYPSDIAVEWESNGQPENNYKTTPPVLDSDGSFFLVSKLTVDKSRWQQGNVFSCSVMHEALHNHYTQKSLSLSPDYKDDDDK EPKSSDKTHTCPPCPAPELLGGPSVFLFPPKPKDTLMISRTPEVTCVVVDVSHEDPEVKFNWYVDGVEVHNAKTKPREEQYNSTYRVVSVLTVLHQDWLNGKEYKCKVSNKALPAPIEKTISKAKGQPREPQVCTLPPSRDELTKNQVSLWCLVKGFYPSDIAVEWESNGQPENNYKTTPPVLDSDGSFFLYSKLTVDKSRWQQGNVFSCSVMHEALHNRYTQKSLSLSP light: DIVMTQSPLSLPVTPGEPASISCRSSQSLVHSNRNTYLHWYQQKPGQAPRLLIYKVSNRFSGVPDRFSGSGSGTDFTLKISRVEAEDVGVYYCGQGTQVPYTFGQGTKLEIKRTVAAPSVFIFPPSDEQLKSGTASVVCLLNNFYPREAKVQWKVDNALQSGNSQESVTEQDSKDSTYSLSSTLTLSKADYEKHKVYACEVTHQGLSSPVTKSFNRGEC
3 | 1.21 | CE115HA000 H chain altered form Y58L (antibody, human IgG1, kappa, L234A L235A, N297A, name in Kabat numbering, one-arm antibody) heavy: QVQLVESGGGVVQPGRSLRLSCAASGFTFSNAWMHWVRQAPGKGLEWVAQIKAKSNNYATLYAESVKGRFTISRDDSKNSLYLQMNSLKTEDTAVYYCRYVHYGAYYGVDAWGQGTTVTVSSASTKGPSVFPLAPSSKSTSGGTAALGCLVKDYFPEPVTVSWNSGALTSGVHTFPAVLQSSGLYSLSSVVTVPSSSLGTQTYICNVNHKPSNTKVDKKVEPKSCDKTHTCPPCPAPEAAGGPSVFLFPPKPKDTLMISRTPEVTCVVVDVSHEDPEVKFNWYVDGVEVHNAKTKPREEQYASTYRVVSVLTVLHQDWLNGKEYKCKVSNKALPAPIEKTISKAKGQPREPQVYTLPPSRCELTKNQVSLSCAVKGFYPSDIAVEWESNGQPENNYKTTPPVLDSDGSFFLVSKLTVDKSRWQQGNVFSCSVMHEALHNHYTQKSLSLSPDYKDDDDK EPKSSDKTHTCPPCPAPELLGGPSVFLFPPKPKDTLMISRTPEVTCVVVDVSHEDPEVKFNWYVDGVEVHNAKTKPREEQYNSTYRVVSVLTVLHQDWLNGKEYKCKVSNKALPAPIEKTISKAKGQPREPQVCTLPPSRDELTKNQVSLWCLVKGFYPSDIAVEWESNGQPENNYKTTPPVLDSDGSFFLYSKLTVDKSRWQQGNVFSCSVMHEALHNRYTQKSLSLSP light: DIVMTQSPLSLPVTPGEPASISCRSSQSLVHSNRNTYLHWYQQKPGQAPRLLIYKVSNRFSGVPDRFSGSGSGTDFTLKISRVEAEDVGVYYCGQGTQVPYTFGQGTKLEIKRTVAAPSVFIFPPSDEQLKSGTASVVCLLNNFYPREAKVQWKVDNALQSGNSQESVTEQDSKDSTYSLSSTLTLSKADYEKHKVYACEVTHQGLSSPVTKSFNRGEC
4 | 1.24 | CE115HA000 H chain altered form Y58Q (antibody, human IgG1, kappa, L234A L235A, N297A, name in Kabat numbering, one-arm antibody) heavy: QVQLVESGGGVVQPGRSLRLSCAASGFTFSNAWMHWVRQAPGKGLEWVAQIKAKSNNYATQYAESVKGRFTISRDDSKNSLYLQMNSLKTEDTAVYYCRYVHYGAYYGVDAWGQGTTVTVSSASTKGPSVFPLAPSSKSTSGGTAALGCLVKDYFPEPVTVSWNSGALTSGVHTFPAVLQSSGLYSLSSVVTVPSSSLGTQTYICNVNHKPSNTKVDKKVEPKSCDKTHTCPPCPAPEAAGGPSVFLFPPKPKDTLMISRTPEVTCVVVDVSHEDPEVKFNWYVDGVEVHNAKTKPREEQYASTYRVVSVLTVLHQDWLNGKEYKCKVSNKALPAPIEKTISKAKGQPREPQVYTLPPSRCELTKNQVSLSCAVKGFYPSDIAVEWESNGQPENNYKTTPPVLDSDGSFFLVSKLTVDKSRWQQGNVFSCSVMHEALHNHYTQKSLSLSPDYKDDDDK EPKSSDKTHTCPPCPAPELLGGPSVFLFPPKPKDTLMISRTPEVTCVVVDVSHEDPEVKFNWYVDGVEVHNAKTKPREEQYNSTYRVVSVLTVLHQDWLNGKEYKCKVSNKALPAPIEKTISKAKGQPREPQVCTLPPSRDELTKNQVSLWCLVKGFYPSDIAVEWESNGQPENNYKTTPPVLDSDGSFFLYSKLTVDKSRWQQGNVFSCSVMHEALHNRYTQKSLSLSP light: DIVMTQSPLSLPVTPGEPASISCRSSQSLVHSNRNTYLHWYQQKPGQAPRLLIYKVSNRFSGVPDRFSGSGSGTDFTLKISRVEAEDVGVYYCGQGTQVPYTFGQGTKLEIKRTVAAPSVFIFPPSDEQLKSGTASVVCLLNNFYPREAKVQWKVDNALQSGNSQESVTEQDSKDSTYSLSSTLTLSKADYEKHKVYACEVTHQGLSSPVTKSFNRGEC
5 | 0.66 | CE115HA000 H chain altered form Y58K (antibody, human IgG1, kappa, L234A L235A, N297A, name in Kabat numbering, one-arm antibody) heavy: QVQLVESGGGVVQPGRSLRLSCAASGFTFSNAWMHWVRQAPGKGLEWVAQIKAKSNNYATKYAESVKGRFTISRDDSKNSLYLQMNSLKTEDTAVYYCRYVHYGAYYGVDAWGQGTTVTVSSASTKGPSVFPLAPSSKSTSGGTAALGCLVKDYFPEPVTVSWNSGALTSGVHTFPAVLQSSGLYSLSSVVTVPSSSLGTQTYICNVNHKPSNTKVDKKVEPKSCDKTHTCPPCPAPEAAGGPSVFLFPPKPKDTLMISRTPEVTCVVVDVSHEDPEVKFNWYVDGVEVHNAKTKPREEQYASTYRVVSVLTVLHQDWLNGKEYKCKVSNKALPAPIEKTISKAKGQPREPQVYTLPPSRCELTKNQVSLSCAVKGFYPSDIAVEWESNGQPENNYKTTPPVLDSDGSFFLVSKLTVDKSRWQQGNVFSCSVMHEALHNHYTQKSLSLSPDYKDDDDK EPKSSDKTHTCPPCPAPELLGGPSVFLFPPKPKDTLMISRTPEVTCVVVDVSHEDPEVKFNWYVDGVEVHNAKTKPREEQYNSTYRVVSVLTVLHQDWLNGKEYKCKVSNKALPAPIEKTISKAKGQPREPQVCTLPPSRDELTKNQVSLWCLVKGFYPSDIAVEWESNGQPENNYKTTPPVLDSDGSFFLYSKLTVDKSRWQQGNVFSCSVMHEALHNRYTQKSLSLSP light: DIVMTQSPLSLPVTPGEPASISCRSSQSLVHSNRNTYLHWYQQKPGQAPRLLIYKVSNRFSGVPDRFSGSGSGTDFTLKISRVEAEDVGVYYCGQGTQVPYTFGQGTKLEIKRTVAAPSVFIFPPSDEQLKSGTASVVCLLNNFYPREAKVQWKVDNALQSGNSQESVTEQDSKDSTYSLSSTLTLSKADYEKHKVYACEVTHQGLSSPVTKSFNRGEC
6 | 1.86 | CE115HA000 H chain altered form Y58N (antibody, human IgG1, kappa, L234A L235A, N297A, name in Kabat numbering, one-arm antibody) heavy: QVQLVESGGGVVQPGRSLRLSCAASGFTFSNAWMHWVRQAPGKGLEWVAQIKAKSNNYATNYAESVKGRFTISRDDSKNSLYLQMNSLKTEDTAVYYCRYVHYGAYYGVDAWGQGTTVTVSSASTKGPSVFPLAPSSKSTSGGTAALGCLVKDYFPEPVTVSWNSGALTSGVHTFPAVLQSSGLYSLSSVVTVPSSSLGTQTYICNVNHKPSNTKVDKKVEPKSCDKTHTCPPCPAPEAAGGPSVFLFPPKPKDTLMISRTPEVTCVVVDVSHEDPEVKFNWYVDGVEVHNAKTKPREEQYASTYRVVSVLTVLHQDWLNGKEYKCKVSNKALPAPIEKTISKAKGQPREPQVYTLPPSRCELTKNQVSLSCAVKGFYPSDIAVEWESNGQPENNYKTTPPVLDSDGSFFLVSKLTVDKSRWQQGNVFSCSVMHEALHNHYTQKSLSLSPDYKDDDDK EPKSSDKTHTCPPCPAPELLGGPSVFLFPPKPKDTLMISRTPEVTCVVVDVSHEDPEVKFNWYVDGVEVHNAKTKPREEQYNSTYRVVSVLTVLHQDWLNGKEYKCKVSNKALPAPIEKTISKAKGQPREPQVCTLPPSRDELTKNQVSLWCLVKGFYPSDIAVEWESNGQPENNYKTTPPVLDSDGSFFLYSKLTVDKSRWQQGNVFSCSVMHEALHNRYTQKSLSLSP light: DIVMTQSPLSLPVTPGEPASISCRSSQSLVHSNRNTYLHWYQQKPGQAPRLLIYKVSNRFSGVPDRFSGSGSGTDFTLKISRVEAEDVGVYYCGQGTQVPYTFGQGTKLEIKRTVAAPSVFIFPPSDEQLKSGTASVVCLLNNFYPREAKVQWKVDNALQSGNSQESVTEQDSKDSTYSLSSTLTLSKADYEKHKVYACEVTHQGLSSPVTKSFNRGEC
